Measurements published in publication PMC10715029, “Interaction and assembly of the DNA replication core proteins of Kaposi’s sarcoma-associated herpesvirus” (Microbiology Spectrum, 2023).

What was measured:
Settings in all cases: partners not purified
GAL4-ORF40/41 [1] = target: T1, GAL4-ORF40/41 (Kaposi's sarcoma-associated herpesvirus …, UniProt Q2HR92 1-669); experiment: two-hybrid; mammalian two-hybrid (GAL4/VP16) in 293T cells, pGal4(5×)-Luc reporter, only the GAL4 and the VP16 fusion coexpressed, luciferase at 24 h, fold activation over empty vector; radicicol (0.25-1 µM) inhibited the activation by GAL4-ORF59 and VP16-ORF9 dose-dependently
T1 construct: KSHV ORF40/41, primase-associated factor (PAF); source: 293T, transfected, mammalian two-hybrid fusion
T1 sequence: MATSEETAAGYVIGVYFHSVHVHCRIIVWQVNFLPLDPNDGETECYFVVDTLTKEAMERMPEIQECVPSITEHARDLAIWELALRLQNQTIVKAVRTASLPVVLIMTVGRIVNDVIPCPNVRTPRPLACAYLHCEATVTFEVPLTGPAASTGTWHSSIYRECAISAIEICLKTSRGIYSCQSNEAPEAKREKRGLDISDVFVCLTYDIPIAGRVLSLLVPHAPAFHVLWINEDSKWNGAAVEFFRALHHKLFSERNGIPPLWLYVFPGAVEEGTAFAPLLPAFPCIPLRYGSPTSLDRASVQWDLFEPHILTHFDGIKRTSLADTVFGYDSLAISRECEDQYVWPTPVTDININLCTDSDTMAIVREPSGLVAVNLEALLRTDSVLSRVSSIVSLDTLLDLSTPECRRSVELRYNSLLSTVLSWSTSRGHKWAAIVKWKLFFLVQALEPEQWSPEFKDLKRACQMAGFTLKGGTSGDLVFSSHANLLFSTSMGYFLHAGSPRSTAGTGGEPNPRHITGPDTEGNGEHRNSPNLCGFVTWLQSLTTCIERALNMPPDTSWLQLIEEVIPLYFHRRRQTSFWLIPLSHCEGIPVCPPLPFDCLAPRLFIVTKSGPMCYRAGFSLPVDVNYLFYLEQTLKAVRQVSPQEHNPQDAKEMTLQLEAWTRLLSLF

GAL4-ORF40/41 [2] = target: T1, GAL4-ORF40/41; experiment: two-hybrid; mammalian two-hybrid (GAL4/VP16) in 293T cells, pGal4(5×)-Luc reporter, GAL4 and VP16 fusions coexpressed with further FLAG-tagged core replication proteins, luciferase at 24 h, fold activation over empty vector; radicicol (0.25-1 µM) inhibited the activation by GAL4-ORF56, VP16-ORF44 and F-ORF40/41 dose-dependently
GAL4-ORF56 = target: T2, GAL4-ORF56 (Kaposi's sarcoma-associated herpesvirus …, UniProt Q76RG1 1-843); experiment: as above
T2 construct: KSHV ORF56, primase (PRI); also called GALF4-ORF56; source: 293T, transfected, mammalian two-hybrid fusion
T2 sequence: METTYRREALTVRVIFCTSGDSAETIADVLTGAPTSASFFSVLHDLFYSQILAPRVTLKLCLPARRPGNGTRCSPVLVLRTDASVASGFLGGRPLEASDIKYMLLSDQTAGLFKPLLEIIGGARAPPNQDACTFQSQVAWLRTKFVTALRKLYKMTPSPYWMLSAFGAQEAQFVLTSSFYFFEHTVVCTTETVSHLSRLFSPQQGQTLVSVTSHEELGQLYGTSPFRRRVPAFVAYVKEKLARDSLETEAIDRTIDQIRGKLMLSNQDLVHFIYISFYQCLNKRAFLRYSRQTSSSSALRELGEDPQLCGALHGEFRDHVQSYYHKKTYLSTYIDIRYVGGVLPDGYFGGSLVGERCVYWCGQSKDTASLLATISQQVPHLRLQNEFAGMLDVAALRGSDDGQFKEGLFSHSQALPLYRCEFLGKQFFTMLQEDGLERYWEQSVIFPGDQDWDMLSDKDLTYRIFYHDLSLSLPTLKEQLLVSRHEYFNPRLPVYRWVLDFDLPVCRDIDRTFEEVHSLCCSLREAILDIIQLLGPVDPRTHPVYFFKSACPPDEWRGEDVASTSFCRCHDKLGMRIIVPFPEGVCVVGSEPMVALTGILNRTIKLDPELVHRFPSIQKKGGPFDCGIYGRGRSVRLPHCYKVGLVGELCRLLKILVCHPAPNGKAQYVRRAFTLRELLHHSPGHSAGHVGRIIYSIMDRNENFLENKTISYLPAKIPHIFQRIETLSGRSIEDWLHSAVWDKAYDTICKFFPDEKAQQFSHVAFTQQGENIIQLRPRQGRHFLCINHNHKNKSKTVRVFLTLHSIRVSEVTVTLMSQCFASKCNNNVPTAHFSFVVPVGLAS

B1: VP16-ORF6 (natural protein)
chain: MALKGPQTLEENIGSAAPTGPCGYLYAYVTHNFPIGEASLLGNGYPEAKVFSLPLLHGLTVESDFPLNVKAVHKKIDATTASVKLTSYHREAIVFHNTHLFQPIFQGKGLEKLCRESRELFGFSTFVEQQHKGTLWSPEACPQLPCANEIFMAVIVTEGFKERLYGGKLVPVPSQTTPVHIGEHQAFKIPLYDEDLFGPSRAQELCRFYNPDISRYLHDSIFTGIAQALRVKDVSTVIQASERQFVHDQYKIPKLVQAKDFPQCASRGTDGSTLMVIDSLVAELGMSYGLSFIEGPQDSCEVLNYDTWPIFENCETPDARLRALEVWHAEQALHIGAQLFAANSVLYLTRVAKLPQKNQRGDANMYNSFYLQHGLGYLSEATVKENGASAFKGVPVSALDGSSYTLQHLAYASSFSPHLLARMCYYLQFLPHHKNTNSQSYNVVDYVGTAAPSQMCDLCQGQCPAVCINTLFYRMKDRFPPVLSNVKRDPYVITGTAGTYNDLEILGNFATFREREEEGNPVEDAPKYTYWQLCQNITEKLASMGISEGGDALRTLIVDIPSFVKVFKGIDSTVEAELLKFINCMIKNNYNFRENIKSVHHILQFACNVYWQAPCPVFLTLYYKSLLTVIQDICLTSCMMYEQDNPAVGIVPSEWLKMHFQTMWTNFKGACFDKGAITGGELKIVHQSMFCDLFDTDAAIGGMFAPARMQVRIARAMLMVPKTIKIKNRIIFSNSTGAESIQAGFMKPASQRDSYIVGGPYMKFLNALHKTLFPSTKTSALYLWHKIGQTTKNPILPGVSGEHLTELCNYVKASSQAFEEINVLDLVPDTLTSYAKIKLNSSILRACGQTQFYATTLSCLSPVTQLVPAEEYPHVLGPVGLSSPDEYRVKVAGRSVTIVQSTLKQAVSTNGRLRPIITVPLVVNKYTGSNGNTNVFHCANLGYFSGRGVDRNLRPESVPFKKNNVSSMLRKRHVIMTPLVDRLVKRIVGINSGEFEAEAVKRSVQNVLEDRDNPNLPKTVVLELVKHLGSSCASLTEEDVIYYLGPYAVLGDEVLSLLSTVGQAGVPWTAEGVASVIQDIIDDCELQFVGPEEPCLIQGQSVVEELFPSPGVPSLTVGKKRKIASLLSDLDL
notes: source: 293T, transfected, mammalian two-hybrid fusion
GAL4-ORF40/41 [1]
  fold reporter activation: 56 fold

B2: VP16-ORF44 (natural protein)
chain: MDSSEGCTDMDEPSPGFILNMTSDAKVRSVVEQIDRLSNITTSPPEMGWYDLEFDPLEDEGPFLPFSAYVITGTAGAGKSTSVSALHQNLNCLITGATVVAAQNLSRALKSYCPTIYHAFGFKSRHINICQRKVPKVTQSSIEQLQRYELARYWPTVTDIIREFMRKKQKGQYSSLSQSAFRLLCRMGGANLWTSNIIVIDEAGTLSSHILTAVVFFYWFYNSWLDTPLYRNGAVPCIVCVGSPTQTDAFQSVFNHTQQRNEISACDNVLTFLLGKREVADYIRLDENWALFINNKRCTDPQFGHLLKTLEYNLDISPELMDYIDRFVVPKSKILDPLEYAGWTRLFISHQEVKSFLATLHTCLSSNKDAVSTKLFTCPVVCEVFTEPFEEYKRAVGLTHMTPIEWVTKNLFRLSNYSQFADQDMAVVGTYITDASTQITFATKFVKNSYATLTGKTKKCICGFHGSYQRFKSILDGELFIESHSHDNPAYVYSFLSTLLYNAMYSFYAHGVKQGHEEFLRDLRELPVSQELISEMSSEDVLGQEGDTDAFYLTASLPPSPTHAALPTLVAYYSGAKELFCNRLALARRHFGDEFLHSDFSTFTVNIVVRDGVDFVSTSPGLHGLVAYASTIDTYIIQGYTFLPVRFGRPGGQRLSEDLRRKMPSIVVQDSSGFIACLENNVTKMTETLEGGDVFNICCAGDYGISSNLAMTIVKAQGVSLSRVAISFGNHRNIRASLVYVGVSRAIDARYLVMDSNPLKLMDRGDAQSPSSKYIIKALCNPKTTLIY
notes: KSHV ORF44, helicase (HEL); source: 293T, transfected, mammalian two-hybrid fusion
GAL4-ORF40/41 [2]
  fold reporter activation (F-ORF56 coexpressed): ≤ 60 fold
GAL4-ORF56
  fold reporter activation (F-ORF40/41 coexpressed): ≤ 55 fold

B3: VP16-ORF40/41 (natural protein)
chain: T1 sequence
notes: KSHV ORF40/41, primase-associated factor (PAF); source: 293T, transfected, mammalian two-hybrid fusion
GAL4-ORF56
  fold reporter activation (F-ORF44 coexpressed): ≤ 280 fold
